For series [1], the target named is T1, CpPGM1B long form (rCpPGM1B-L) (Cryptosporidium parvum, UniProt Q5CTF2).
T1 construct: gene cgd2_3270; linker plus PGM1 domain; signal peptide (63 nt) removed (full ORF 2013 bp); MBP-fusion (pMAL-c5x), E. coli BL21(DE3), MBP kept
T1 sequence (Q5CTF2 24-670): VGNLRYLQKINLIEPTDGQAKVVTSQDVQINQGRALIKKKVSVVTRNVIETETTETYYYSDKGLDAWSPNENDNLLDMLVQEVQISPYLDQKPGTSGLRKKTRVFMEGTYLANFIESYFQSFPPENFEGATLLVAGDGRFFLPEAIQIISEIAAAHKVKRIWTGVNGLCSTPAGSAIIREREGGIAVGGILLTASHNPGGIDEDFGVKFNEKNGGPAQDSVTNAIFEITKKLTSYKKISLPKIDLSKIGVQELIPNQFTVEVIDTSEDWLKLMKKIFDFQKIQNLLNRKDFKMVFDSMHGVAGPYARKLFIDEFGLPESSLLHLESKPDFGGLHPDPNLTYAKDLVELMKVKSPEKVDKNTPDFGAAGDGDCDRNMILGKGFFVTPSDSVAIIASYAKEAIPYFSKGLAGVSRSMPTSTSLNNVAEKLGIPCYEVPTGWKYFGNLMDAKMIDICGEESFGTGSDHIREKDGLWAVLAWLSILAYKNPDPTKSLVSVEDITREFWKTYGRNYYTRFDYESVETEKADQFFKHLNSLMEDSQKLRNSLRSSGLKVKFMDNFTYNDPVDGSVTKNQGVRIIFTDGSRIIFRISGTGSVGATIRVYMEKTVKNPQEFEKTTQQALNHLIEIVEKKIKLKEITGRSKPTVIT
Description: G6PDH-coupled assay, NADH formation at […] nm. The class given is biochemical. Particulars: 50 mM Tris-HCl pH 8.5, 1.0 mM MgCl2, 0.2 mM NAD+, 2 mM G1P.

Substrate in the series “purified protein”: O=P(O)(O)O[C@H]1O[C@H](CO)[C@@H](O)[C@H](O)[C@H]1O
Description: purified protein. Particulars: 50 mM Tris-HCl pH 8.5, 1.0 mM MgCl2, 0.2 mM NAD+. It is filed as biochemical, Cryptosporidium parvum.

As to `O=P(O)(O)O[C@H]1O[C@H](CO)[C@@H](O)[C@H](O)[C@H]1O` [G1P, glucose-1-phosphate], the “G6PDH-coupled assay, NADH formation at 340 nm” value in series [1] was “rCpPGM1A, rCpPGM1B-L and rCpPGM1B-S) displayed activity in converting G1P to G6P”.

B1: CpPGM1A (rCpPGM1A) (Cryptosporidium parvum) (protein)
chain: MEQVQVTPYLDQKPGTSGLRKKTRVFMEGTYLANFIESYFQSFPPENFEGATLLVAGDGRFFLPEAIQIISEIAAAHKVKRIWTGVNGLCSTPAGSAIIREREGGIAVGGILLTASHNPGGIDEDFGVKFNGKNGGPAQDSVTNTIFEITKKLTSYKKISLPKIDLSKIGVQELIPNQFTVEVIDTSEDWLKLMKKIFDFQKIQNLLNRKDFKMAFDSMHGVAGPYARKLFVDEFGLPESSLLHLESKPDFGGLHPDPNLTYAKDLVELMKVKSPEKVDKSTPDFGAAGDGDCDRNMILGKGFFVTPSDSVAIIASYAKEAIPYFSKGLAGVSRSMPTSTSLNNVAEKLGIPCYEVPTGWKYFGNLMDAKMIDICGEESFGTGSDHIREKDGLWAVLAWLSILAHKNPDPTKPLVSVEDITREFWKTYGRNYYTRFDYESIETEKADQFFKHLNSLMEDHQKLREIIKPYGIDIKLTDNFTYNDPVDKSVAKNQGLRFIFQDNSRVVFRLSGTGSVGATIRIYIEKTVSDQTKVNSTSNEILGDLIEIVEKKIKLKESTGRDRPTVIT
Turning to B1, in “purified protein”, the Michaelis-Menten constant (Km) came to 170 µM.

B2: CpPGM1B short form (rCpPGM1B-S) (Cryptosporidium parvum Iowa II) (protein)
chain: LLDMLVQEVQISPYLDQKPGTSGLRKKTRVFMEGTYLANFIESYFQSFPPENFEGATLLVAGDGRFFLPEAIQIISEIAAAHKVKRIWTGVNGLCSTPAGSAIIREREGGIAVGGILLTASHNPGGIDEDFGVKFNEKNGGPAQDSVTNAIFEITKKLTSYKKISLPKIDLSKIGVQELIPNQFTVEVIDTSEDWLKLMKKIFDFQKIQNLLNRKDFKMVFDSMHGVAGPYARKLFIDEFGLPESSLLHLESKPDFGGLHPDPNLTYAKDLVELMKVKSPEKVDKNTPDFGAAGDGDCDRNMILGKGFFVTPSDSVAIIASYAKEAIPYFSKGLAGVSRSMPTSTSLNNVAEKLGIPCYEVPTGWKYFGNLMDAKMIDICGEESFGTGSDHIREKDGLWAVLAWLSILAYKNPDPTKSLVSVEDITREFWKTYGRNYYTRFDYESVETEKADQFFKHLNSLMEDSQKLRNSLRSSGLKVKFMDNFTYNDPVDGSVTKNQGVRIIFTDGSRIIFRISGTGSVGATIRVYMEKTVKNPQEFEKTTQQALNHLIEIVEKKIKLKEITGRSKPTVIT
notes: PGM1 domain only; signal peptide and ~80 aa linker removed (full ORF 2013 bp); MBP-fusion (pMAL-c5x), E. coli BL21(DE3), MBP kept
With B2, the Michaelis-Menten constant (Km) in the series “purified protein” was 130 µM.

Usually Km stands for the substrate concentration at which the rate is half of its maximum.

The values are drawn from paper PMC8781159, “Implication of Potential Differential Roles of the Two Phosphoglucomutase Isoforms in the Protozoan Parasite Cryptosporidium parvum” (Pathogens, 2021).
